Measurements reported in the supplement of paper PMC7125110.
± gives the standard error. For part of these data: Fewer inactive variants are shown than the library holds.

B1: glmS ribozyme (parent)
chain: AUAAAAGCGCCAGAACUACAGAAAUGUAGUUGACGAGGAGGAGGUUUAUCGAAUUUUCGGCGGAUGCCUCCAAA

Tests used:
Details in all cases: with glucosamine-6-phosphate
glucosamine-6-phosphate [1] = variants of: B1; experiment: kcat; higher = faster cleavage; RNA array
Summary of the method: (§1)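 Barcoded ribozyme variants were transcribed in situ on sequenced MiSeq chips by E. coli RNA polymerase. At 37 °C, a hybridised Cy3 probe tracked them while glucosamine-6-phosphate (40 μM to 10 mM) in HEPES/KCl/Mg(OAc)2 buffer flowed in and tiles were imaged over ~14 h. Per-tile medians of signals normalised to baseline and to non-cleaving reference variants were fit to one- or two-exponential decays, giving kobs. kcat and KM came from weighted Michaelis–Menten fits across concentrations.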

glucosamine-6-phosphate [2] = variants of: B1; experiment: self-cleavage kobs at 40 uM GlcN6P; higher = faster cleavage; RNA array
Summary of the method: as §1

glucosamine-6-phosphate [3] = variants of: B1; experiment: self-cleavage kobs at 160 uM GlcN6P; higher = faster cleavage; RNA array
Summary of the method: as §1

glucosamine-6-phosphate [4] = variants of: B1; experiment: self-cleavage kobs at 640 uM GlcN6P; higher = faster cleavage; RNA array
Summary of the method: as §1

glucosamine-6-phosphate [5] = variants of: B1; experiment: self-cleavage kobs at 2500 uM GlcN6P; higher = faster cleavage; RNA array
Summary of the method: as §1

glucosamine-6-phosphate [6] = variants of: B1; experiment: self-cleavage kobs at 10000 uM GlcN6P; higher = faster cleavage; RNA array
Summary of the method: as §1

glucosamine-6-phosphate [7] = variants of: B1; experiment: KM; higher = weaker cofactor use; RNA array
Summary of the method: as §1

U47A C67A
kcat (glucosamine-6-phosphate [1]): 0.00576 ± 0.0027 s⁻¹ | self-cleavage kobs at 40 uM GlcN6P (glucosamine-6-phosphate [2]): 0.000186 ± 2.7e-05 s⁻¹ | self-cleavage kobs at 160 uM GlcN6P (glucosamine-6-phosphate [3]): 0.000303 ± 5.4e-05 s⁻¹ | self-cleavage kobs at 640 uM GlcN6P (glucosamine-6-phosphate [4]): 0.0014 ± 0.00021 s⁻¹ | self-cleavage kobs at 2500 uM GlcN6P (glucosamine-6-phosphate [5]): 0.00288 ± 0.00043 s⁻¹ | self-cleavage kobs at 10000 uM GlcN6P (glucosamine-6-phosphate [6]): 0.00568 ± 0.0013 s⁻¹

G44U U56A
kcat (glucosamine-6-phosphate [1]): 0.000132 ± 9e-06 s⁻¹ | KM (glucosamine-6-phosphate [7]): 2840 ± 550 µM | self-cleavage kobs at 40 uM GlcN6P (glucosamine-6-phosphate [2]): < 1e-05 s⁻¹ | self-cleavage kobs at 2500 uM GlcN6P (glucosamine-6-phosphate [5]): 6.59e-05 ± 1e-05 s⁻¹ | self-cleavage kobs at 10000 uM GlcN6P (glucosamine-6-phosphate [6]): 0.000102 ± 9.4e-06 s⁻¹

U46A U55G
kcat (glucosamine-6-phosphate [1]): 0.0019 ± 0.00044 s⁻¹ | KM (glucosamine-6-phosphate [7]): 1350 ± 440 µM | self-cleavage kobs at 40 uM GlcN6P (glucosamine-6-phosphate [2]): 5.8e-05 ± 7.5e-06 s⁻¹ | self-cleavage kobs at 160 uM GlcN6P (glucosamine-6-phosphate [3]): 0.000169 ± 2.3e-05 s⁻¹ | self-cleavage kobs at 640 uM GlcN6P (glucosamine-6-phosphate [4]): 0.000893 ± 0.00011 s⁻¹ | self-cleavage kobs at 2500 uM GlcN6P (glucosamine-6-phosphate [5]): 0.001 ± 0.00022 s⁻¹ | self-cleavage kobs at 10000 uM GlcN6P (glucosamine-6-phosphate [6]): 0.00169 ± 0.00022 s⁻¹

G44A U46G
kcat (glucosamine-6-phosphate [1]): 0.000265 ± 5.2e-05 s⁻¹ | self-cleavage kobs at 640 uM GlcN6P (glucosamine-6-phosphate [4]): 0.000114 ± 2.6e-05 s⁻¹ | self-cleavage kobs at 2500 uM GlcN6P (glucosamine-6-phosphate [5]): 0.000213 ± 4.4e-05 s⁻¹ | self-cleavage kobs at 10000 uM GlcN6P (glucosamine-6-phosphate [6]): 0.000221 ± 4.7e-05 s⁻¹

G43A U54G
kcat (glucosamine-6-phosphate [1]): 0.000123 ± 6e-06 s⁻¹ | KM (glucosamine-6-phosphate [7]): 2490 ± 310 µM | self-cleavage kobs at 2500 uM GlcN6P (glucosamine-6-phosphate [5]): 6.39e-05 ± 1.5e-05 s⁻¹ | self-cleavage kobs at 10000 uM GlcN6P (glucosamine-6-phosphate [6]): 9.76e-05 ± 1.9e-05 s⁻¹

U46G
kcat (glucosamine-6-phosphate [1]): 0.0111 ± 0.0013 s⁻¹ | KM (glucosamine-6-phosphate [7]): 2110 ± 340 µM | self-cleavage kobs at 40 uM GlcN6P (glucosamine-6-phosphate [2]): 0.000228 ± 4.5e-06 s⁻¹ | self-cleavage kobs at 160 uM GlcN6P (glucosamine-6-phosphate [3]): 0.000671 ± 2.7e-05 s⁻¹ | self-cleavage kobs at 640 uM GlcN6P (glucosamine-6-phosphate [4]): 0.00241 ± 6.1e-05 s⁻¹ | self-cleavage kobs at 2500 uM GlcN6P (glucosamine-6-phosphate [5]): 0.00589 ± 0.00015 s⁻¹ | self-cleavage kobs at 10000 uM GlcN6P (glucosamine-6-phosphate [6]): 0.00965 ± 0.00026 s⁻¹

U46C
kcat (glucosamine-6-phosphate [1]): 0.00387 ± 0.00034 s⁻¹ | KM (glucosamine-6-phosphate [7]): 1410 ± 170 µM | self-cleavage kobs at 40 uM GlcN6P (glucosamine-6-phosphate [2]): 0.000108 ± 2.5e-06 s⁻¹ | self-cleavage kobs at 160 uM GlcN6P (glucosamine-6-phosphate [3]): 0.000364 ± 1.3e-05 s⁻¹ | self-cleavage kobs at 640 uM GlcN6P (glucosamine-6-phosphate [4]): 0.00126 ± 3.5e-05 s⁻¹ | self-cleavage kobs at 2500 uM GlcN6P (glucosamine-6-phosphate [5]): 0.00342 ± 0.00018 s⁻¹ | self-cleavage kobs at 10000 uM GlcN6P (glucosamine-6-phosphate [6]): 0.00329 ± 7.7e-05 s⁻¹

U46A
kcat (glucosamine-6-phosphate [1]): 0.00402 ± 0.00054 s⁻¹ | KM (glucosamine-6-phosphate [7]): 1880 ± 330 µM | self-cleavage kobs at 40 uM GlcN6P (glucosamine-6-phosphate [2]): 9.25e-05 ± 2.1e-06 s⁻¹ | self-cleavage kobs at 160 uM GlcN6P (glucosamine-6-phosphate [3]): 0.000271 ± 1.3e-05 s⁻¹ | self-cleavage kobs at 640 uM GlcN6P (glucosamine-6-phosphate [4]): 0.000926 ± 2.8e-05 s⁻¹ | self-cleavage kobs at 2500 uM GlcN6P (glucosamine-6-phosphate [5]): 0.00341 ± 0.00031 s⁻¹ | self-cleavage kobs at 10000 uM GlcN6P (glucosamine-6-phosphate [6]): 0.00344 ± 9.1e-05 s⁻¹

U46G U47C
kcat (glucosamine-6-phosphate [1]): 0.00353 ± 0.0011 s⁻¹ | KM (glucosamine-6-phosphate [7]): 981 ± 440 µM | self-cleavage kobs at 40 uM GlcN6P (glucosamine-6-phosphate [2]): 0.000104 ± 2.7e-05 s⁻¹ | self-cleavage kobs at 160 uM GlcN6P (glucosamine-6-phosphate [3]): 0.000744 ± 0.00015 s⁻¹ | self-cleavage kobs at 640 uM GlcN6P (glucosamine-6-phosphate [4]): 0.00158 ± 0.00026 s⁻¹ | self-cleavage kobs at 2500 uM GlcN6P (glucosamine-6-phosphate [5]): 0.00225 ± 0.00047 s⁻¹ | self-cleavage kobs at 10000 uM GlcN6P (glucosamine-6-phosphate [6]): 0.00332 ± 0.0012 s⁻¹

U45G C58A
kcat (glucosamine-6-phosphate [1]): 0.000297 ± 2.9e-05 s⁻¹ | KM (glucosamine-6-phosphate [7]): 3170 ± 620 µM | self-cleavage kobs at 640 uM GlcN6P (glucosamine-6-phosphate [4]): 4.61e-05 ± 9.8e-06 s⁻¹ | self-cleavage kobs at 2500 uM GlcN6P (glucosamine-6-phosphate [5]): 0.000147 ± 2.3e-05 s⁻¹ | self-cleavage kobs at 10000 uM GlcN6P (glucosamine-6-phosphate [6]): 0.00022 ± 2.6e-05 s⁻¹

G44U U65G
kcat (glucosamine-6-phosphate [1]): 0.000347 ± 2.4e-05 s⁻¹ | self-cleavage kobs at 2500 uM GlcN6P (glucosamine-6-phosphate [5]): 5.71e-05 ± 1.8e-05 s⁻¹ | self-cleavage kobs at 10000 uM GlcN6P (glucosamine-6-phosphate [6]): 0.000152 ± 2.6e-05 s⁻¹

U46A C71A
kcat (glucosamine-6-phosphate [1]): 0.00108 ± 0.00054 s⁻¹ | self-cleavage kobs at 640 uM GlcN6P (glucosamine-6-phosphate [4]): 0.000259 ± 5.1e-05 s⁻¹ | self-cleavage kobs at 2500 uM GlcN6P (glucosamine-6-phosphate [5]): 0.000566 ± 0.00015 s⁻¹ | self-cleavage kobs at 10000 uM GlcN6P (glucosamine-6-phosphate [6]): 0.000724 ± 0.00023 s⁻¹

U47A C58G
kcat (glucosamine-6-phosphate [1]): 0.000134 ± 1.1e-05 s⁻¹ | KM (glucosamine-6-phosphate [7]): 1740 ± 440 µM | self-cleavage kobs at 640 uM GlcN6P (glucosamine-6-phosphate [4]): 4.54e-05 ± 1.7e-05 s⁻¹ | self-cleavage kobs at 2500 uM GlcN6P (glucosamine-6-phosphate [5]): 7.52e-05 ± 1.2e-05 s⁻¹ | self-cleavage kobs at 10000 uM GlcN6P (glucosamine-6-phosphate [6]): 0.000117 ± 1.5e-05 s⁻¹

U45A C50A
kcat (glucosamine-6-phosphate [1]): 1.56e-05 ± 1.5e-06 s⁻¹

U45A C50U
kcat (glucosamine-6-phosphate [1]): 0.000477 ± 0.00018 s⁻¹ | self-cleavage kobs at 2500 uM GlcN6P (glucosamine-6-phosphate [5]): 3.25e-05 ± 1.4e-05 s⁻¹ | self-cleavage kobs at 10000 uM GlcN6P (glucosamine-6-phosphate [6]): 0.000107 ± 1.3e-05 s⁻¹
